Article PMC7237784

Molecular target: T1, AcFur (Acidithiobacillus caldus MTH-04) (UniProt A0A060A2G1)
T1 sequence: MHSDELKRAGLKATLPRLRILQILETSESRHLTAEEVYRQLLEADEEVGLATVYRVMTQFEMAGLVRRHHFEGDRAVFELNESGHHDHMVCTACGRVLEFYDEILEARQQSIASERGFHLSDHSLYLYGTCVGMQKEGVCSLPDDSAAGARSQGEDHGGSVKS
Test: EMSA
Conditions: EMSA: 0.4 nM DNA, 0/2/4/8 nM protein, 10 mM Tris-HCl pH 8.0, 100 mM NaCl, 1 mM MnCl2, room temperature, 30 min; 5% native PAGE in 0.5x TBE, EB stain

Row | Sequence | binding
1 | TTCCACCTGCTCACCTGCGCGGGCCGAGCTCAGGCGGTGGGGGGAAAGGACTTGGGTCATGACGCTCACACTCCCAACGAGTTCGTGGGGACACTATATCATAATGGTAATCATTTGCAATATCAGCCCAAGGGAGGGCCGTCCCGGCGGACGCAGCCGCCGACGCTCAGTCCAGGTCGCCGTGCCTGGGTGTAAAACGC (double strand) [feoABC operator (feoA promoter)] | binds
2 | GCGTAGGACGTCCTTGATAACTGCAACTAAGTTGCATATATTCCGCACGACCACTCCGCGCGTCCCTGGGGAGCTTGACCGGTAAGTCTATTTATTGAATGATAATGATTAGCATTTATATTATTTGGAGAGATTGTCCATGCGTCGTATACCCCTCTGTGCGCTGCTGAGCACCATGCTTGCTTCCAGC (double strand) [feoP promoter] | binds
